# Measured values reported in the supplement of paper PMC9112550, “Optimization of the antimicrobial peptide Bac7 by deep mutational scanning” (BMC Biology, 2022).
# System: Escherichia coli TOP10
# Test: shrunken log2 fold change of peptide-encoding DNA abundance (4.5 h post-induction vs induction); higher = less antimicrobial activity (less host growth inhibition)
# Conditions: time post-induction: 4.5 h; library: site-saturation at positions 5, 18, 19, 20
# 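Also: peptides expressed intracellularly from a pBAD plasmid library in pooled LB shake-flask culture, induced with 0.3% L-arabinose, DNA abundance read by NGS, three biological replicates, DESeq2 with apeglm shrinkage.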
row,Sequence,shrunken log2 fold change
1,RRIRRRPPRLPRPRPRPSWFPRP,0.165
2,RRIRRRPPRLPRPRPRPSWWPRP,0.327
3,RRIRRRPPRLPRPRPRPTDMPRP,-0.0645
4,RRIRRRPPRLPRPRPRPTDQPRP,0.552
5,RRIRRRPPRLPRPRPRPTFDPRP,0.425
6,RRIRRRPPRLPRPRPRPTHDPRP,0.89
7,RRIRRRPPRLPRPRPRPTIKPRP,-0.0992
8,RRIRRRPPRLPRPRPRPTILPRP,-0.0149
9,RRIRRRPPRLPRPRPRPTITPRP,0.0541
10,RRIRRRPPRLPRPRPRPTLDPRP,0.809
11,RRIRRRPPRLPRPRPRPTLTPRP,0.466
12,RRIRRRPPRLPRPRPRPTNCPRP,-0.197
13,RRIRRRPPRLPRPRPRPTPMPRP,1.08
14,RRIRRRPPRLPRPRPRPTPTPRP,1.14
15,RRIRRRPPRLPRPRPRPTQEPRP,0.212
16,RRIRRRPPRLPRPRPRPTTAPRP,0.541
17,RRIRRRPPRLPRPRPRPTWCPRP,0.0593
18,RRIRRRPPRLPRPRPRPTWGPRP,0.42
19,RRIRRRPPRLPRPRPRPTWPPRP,0.647
20,RRIRRRPPRLPRPRPRPTWQPRP,0.459
21,RRIRRRPPRLPRPRPRPTYSPRP,-0.116
22,RRIRRRPPRLPRPRPRPTYVPRP,0.00831
23,RRIRRRPPRLPRPRPRPTYYPRP,-0.0395
24,RRIRRRPPRLPRPRPRPVASPRP,0.0932
25,RRIRRRPPRLPRPRPRPVAVPRP,0.348

row,Sequence,shrunken log2 fold change
1,RRIRRRPPRLPRPRPRPVCSPRP,0.225
2,RRIRRRPPRLPRPRPRPVDCPRP,0.12
3,RRIRRRPPRLPRPRPRPVDKPRP,0.0213
4,RRIRRRPPRLPRPRPRPVDLPRP,0.332
5,RRIRRRPPRLPRPRPRPVFYPRP,-0.0199
6,RRIRRRPPRLPRPRPRPVGLPRP,0.111
7,RRIRRRPPRLPRPRPRPVIWPRP,0.185
8,RRIRRRPPRLPRPRPRPVKIPRP,0.266
9,RRIRRRPPRLPRPRPRPVLGPRP,0.528
10,RRIRRRPPRLPRPRPRPVMGPRP,0.0569
11,RRIRRRPPRLPRPRPRPVMQPRP,0.316
12,RRIRRRPPRLPRPRPRPVNLPRP,0.219
13,RRIRRRPPRLPRPRPRPVPGPRP,0.402
14,RRIRRRPPRLPRPRPRPVQGPRP,0.223
15,RRIRRRPPRLPRPRPRPVQMPRP,0.158
16,RRIRRRPPRLPRPRPRPVQNPRP,0.285
17,RRIRRRPPRLPRPRPRPVRLPRP,1.08
18,RRIRRRPPRLPRPRPRPVRVPRP,0.791
19,RRIRRRPPRLPRPRPRPVSWPRP,0.849
20,RRIRRRPPRLPRPRPRPVTWPRP,0.182
21,RRIRRRPPRLPRPRPRPVVFPRP,0.286
22,RRIRRRPPRLPRPRPRPVVLPRP,-0.0732
23,RRIRRRPPRLPRPRPRPVWGPRP,0.359
24,RRIRRRPPRLPRPRPRPVWTPRP,0.436
25,RRIRRRPPRLPRPRPRPVWYPRP,0.18

row,Sequence,shrunken log2 fold change
1,RRIRRRPPRLPRPRPRPWAAPRP,0.403
2,RRIRRRPPRLPRPRPRPWAIPRP,-0.0356
3,RRIRRRPPRLPRPRPRPWAMPRP,-0.136
4,RRIRRRPPRLPRPRPRPWANPRP,0.0142
5,RRIRRRPPRLPRPRPRPWATPRP,0.0893
6,RRIRRRPPRLPRPRPRPWAVPRP,-0.00967
7,RRIRRRPPRLPRPRPRPWCNPRP,-0.543
8,RRIRRRPPRLPRPRPRPWCPPRP,-0.0442
9,RRIRRRPPRLPRPRPRPWDGPRP,0.399
10,RRIRRRPPRLPRPRPRPWEEPRP,0.158
11,RRIRRRPPRLPRPRPRPWHKPRP,-0.384
12,RRIRRRPPRLPRPRPRPWHYPRP,-0.0356
13,RRIRRRPPRLPRPRPRPWILPRP,-0.0248
14,RRIRRRPPRLPRPRPRPWITPRP,-0.0428
15,RRIRRRPPRLPRPRPRPWKDPRP,-0.0442
16,RRIRRRPPRLPRPRPRPWNKPRP,0.0897
17,RRIRRRPPRLPRPRPRPWNVPRP,0.00231
18,RRIRRRPPRLPRPRPRPWNYPRP,-0.242
19,RRIRRRPPRLPRPRPRPWPEPRP,-0.201
20,RRIRRRPPRLPRPRPRPWPLPRP,0.468
21,RRIRRRPPRLPRPRPRPWPTPRP,0.0393
22,RRIRRRPPRLPRPRPRPWPYPRP,0.131
23,RRIRRRPPRLPRPRPRPWRHPRP,0.0972
24,RRIRRRPPRLPRPRPRPWRIPRP,0.0818
25,RRIRRRPPRLPRPRPRPWRKPRP,0.302
